This note sets out measurements from PMC2646909.

The data set has as its target SOD1 G93A (untagged) (human, UniProt P00441 2-154, G94A). The data set is described as follows: competition.

SOD1 G93A (untagged), sequence (P00441 2-154 G94A): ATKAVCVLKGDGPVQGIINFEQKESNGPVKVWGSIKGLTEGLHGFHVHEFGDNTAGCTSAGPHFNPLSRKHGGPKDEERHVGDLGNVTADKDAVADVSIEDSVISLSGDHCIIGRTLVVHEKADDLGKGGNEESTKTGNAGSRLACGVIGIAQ

As to CGGAGCCCAGCCCUCCCCAUGGAGCCAGCUCCCUCU (ssRNA) [control RNA (no AU-rich sequence)], the binding result is “no binding”.
